Experimental data reported in patent US20150344570A1 (published 2015).

Biological target: T1, FcγRIa (human, UniProt P12314 16-292)
T1 construct: extracellular domain; also called FcgRI; 1a
Assay: SPR (Biacore); He Ab relative to HeCon Ab = 100
Protocol: Analysis of interaction between objective antibody and the FcγR was carried out using Biacore T100 (GE Healthcare). HBS-EP+ (GE Healthcare) was used as the running buffer, and the measurement temperature was set to 25° C. Chips produced by immobilizing the antigen peptide by the amine coupling method to a Series S Sencor Chip CM5 (GE Healthcare), or alternatively, chips produced by allowing preliminarily biotinylated antigen peptides to interact with and immobilize onto a Series S Sensor Chip SA (certified) (GE Healthcare) were used. Antibodies of interest were captured onto an antigen peptide-immobilized chip, and allowed to interact to each FcγR diluted with running buffer. To regenerate and repeatedly use the chip, the antibodies captured on the chip were washed off by reacting 10 mM glycine-HCl, pH 1.5.

T1 sequence (P12314 16-292): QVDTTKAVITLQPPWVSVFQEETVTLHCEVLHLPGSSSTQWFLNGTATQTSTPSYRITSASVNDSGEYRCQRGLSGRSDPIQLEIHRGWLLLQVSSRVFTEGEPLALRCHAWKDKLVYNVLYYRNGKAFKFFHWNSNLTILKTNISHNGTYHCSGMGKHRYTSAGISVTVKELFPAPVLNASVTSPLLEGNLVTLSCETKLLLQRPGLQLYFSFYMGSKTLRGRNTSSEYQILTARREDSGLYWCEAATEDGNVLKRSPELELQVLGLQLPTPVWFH

Binder | He/Con_1a
GpH7-A5/GpH7-B3 variant E269_01G/GpL16-k0 (antibody, human IgG1, kappa, also called He Ab E269_01G) heavy 1: not shown heavy 2: not shown light: DIVMTQSPLSLPVTPGEPASISCQASESLVHSNRNTYLHWYLQKPGQSPQLLIYKVSNRFSGVPDRFSGSGSGTDFTLKISRVEAEDVGVYYCSQNTHVPPTFGQGTKVEIERTVAAPSVFIFPPSDEQLKSGTASVVCLLNNFYPREAKVQWKVDNALQSGNSQESVTEQDSKDSTYSLSSTLTLSKADYEKHKVYACEVTHQGLSSPVTKSFNRGEC | 104 % of control
GpH7-A5/GpH7-B3 variant A327_13S/GpL16-k0 (antibody, human IgG1, kappa, also called He Ab A327_13S) heavy 1: not shown heavy 2: not shown light: DIVMTQSPLSLPVTPGEPASISCQASESLVHSNRNTYLHWYLQKPGQSPQLLIYKVSNRFSGVPDRFSGSGSGTDFTLKISRVEAEDVGVYYCSQNTHVPPTFGQGTKVEIERTVAAPSVFIFPPSDEQLKSGTASVVCLLNNFYPREAKVQWKVDNALQSGNSQESVTEQDSKDSTYSLSSTLTLSKADYEKHKVYACEVTHQGLSSPVTKSFNRGEC | 102 % of control
GpH7-A5/GpH7-B3 variant A330_16H/GpL16-k0 (antibody, human IgG1, kappa, also called He Ab A330_16H) heavy 1: not shown heavy 2: not shown light: DIVMTQSPLSLPVTPGEPASISCQASESLVHSNRNTYLHWYLQKPGQSPQLLIYKVSNRFSGVPDRFSGSGSGTDFTLKISRVEAEDVGVYYCSQNTHVPPTFGQGTKVEIERTVAAPSVFIFPPSDEQLKSGTASVVCLLNNFYPREAKVQWKVDNALQSGNSQESVTEQDSKDSTYSLSSTLTLSKADYEKHKVYACEVTHQGLSSPVTKSFNRGEC | 106 % of control
GpH7-A5/GpH7-B3 variant A330_09D/GpL16-k0 (antibody, human IgG1, kappa, also called He Ab A330_09D) heavy 1: not shown heavy 2: not shown light: DIVMTQSPLSLPVTPGEPASISCQASESLVHSNRNTYLHWYLQKPGQSPQLLIYKVSNRFSGVPDRFSGSGSGTDFTLKISRVEAEDVGVYYCSQNTHVPPTFGQGTKVEIERTVAAPSVFIFPPSDEQLKSGTASVVCLLNNFYPREAKVQWKVDNALQSGNSQESVTEQDSKDSTYSLSSTLTLSKADYEKHKVYACEVTHQGLSSPVTKSFNRGEC | 109 % of control
GpH7-A5/GpH7-B3 variant A330_05P/GpL16-k0 (antibody, human IgG1, kappa, also called He Ab A330_05P) heavy 1: not shown heavy 2: not shown light: DIVMTQSPLSLPVTPGEPASISCQASESLVHSNRNTYLHWYLQKPGQSPQLLIYKVSNRFSGVPDRFSGSGSGTDFTLKISRVEAEDVGVYYCSQNTHVPPTFGQGTKVEIERTVAAPSVFIFPPSDEQLKSGTASVVCLLNNFYPREAKVQWKVDNALQSGNSQESVTEQDSKDSTYSLSSTLTLSKADYEKHKVYACEVTHQGLSSPVTKSFNRGEC | 101 % of control
GpH7-A5/GpH7-B3 variant A327_06M/GpL16-k0 (antibody, human IgG1, kappa, also called He Ab A327_06M) heavy 1: not shown heavy 2: not shown light: DIVMTQSPLSLPVTPGEPASISCQASESLVHSNRNTYLHWYLQKPGQSPQLLIYKVSNRFSGVPDRFSGSGSGTDFTLKISRVEAEDVGVYYCSQNTHVPPTFGQGTKVEIERTVAAPSVFIFPPSDEQLKSGTASVVCLLNNFYPREAKVQWKVDNALQSGNSQESVTEQDSKDSTYSLSSTLTLSKADYEKHKVYACEVTHQGLSSPVTKSFNRGEC | 103 % of control
GpH7-A5/GpH7-B3 variant E269_02A/GpL16-k0 (antibody, human IgG1, kappa, also called He Ab E269_02A) heavy 1: not shown heavy 2: not shown light: DIVMTQSPLSLPVTPGEPASISCQASESLVHSNRNTYLHWYLQKPGQSPQLLIYKVSNRFSGVPDRFSGSGSGTDFTLKISRVEAEDVGVYYCSQNTHVPPTFGQGTKVEIERTVAAPSVFIFPPSDEQLKSGTASVVCLLNNFYPREAKVQWKVDNALQSGNSQESVTEQDSKDSTYSLSSTLTLSKADYEKHKVYACEVTHQGLSSPVTKSFNRGEC | 104 % of control
GpH7-A5/GpH7-B3 variant A327_07I/GpL16-k0 (antibody, human IgG1, kappa, also called He Ab A327_07I) heavy 1: not shown heavy 2: not shown light: DIVMTQSPLSLPVTPGEPASISCQASESLVHSNRNTYLHWYLQKPGQSPQLLIYKVSNRFSGVPDRFSGSGSGTDFTLKISRVEAEDVGVYYCSQNTHVPPTFGQGTKVEIERTVAAPSVFIFPPSDEQLKSGTASVVCLLNNFYPREAKVQWKVDNALQSGNSQESVTEQDSKDSTYSLSSTLTLSKADYEKHKVYACEVTHQGLSSPVTKSFNRGEC | 104 % of control
GpH7-A5/GpH7-B3 variant A330_11K/GpL16-k0 (antibody, human IgG1, kappa, also called He Ab A330_11K) heavy 1: not shown heavy 2: not shown light: DIVMTQSPLSLPVTPGEPASISCQASESLVHSNRNTYLHWYLQKPGQSPQLLIYKVSNRFSGVPDRFSGSGSGTDFTLKISRVEAEDVGVYYCSQNTHVPPTFGQGTKVEIERTVAAPSVFIFPPSDEQLKSGTASVVCLLNNFYPREAKVQWKVDNALQSGNSQESVTEQDSKDSTYSLSSTLTLSKADYEKHKVYACEVTHQGLSSPVTKSFNRGEC | 103 % of control
GpH7-A5/GpH7-B3 variant A330_08L/GpL16-k0 (antibody, human IgG1, kappa, also called He Ab A330_08L) heavy 1: not shown heavy 2: not shown light: DIVMTQSPLSLPVTPGEPASISCQASESLVHSNRNTYLHWYLQKPGQSPQLLIYKVSNRFSGVPDRFSGSGSGTDFTLKISRVEAEDVGVYYCSQNTHVPPTFGQGTKVEIERTVAAPSVFIFPPSDEQLKSGTASVVCLLNNFYPREAKVQWKVDNALQSGNSQESVTEQDSKDSTYSLSSTLTLSKADYEKHKVYACEVTHQGLSSPVTKSFNRGEC | 107 % of control
GpH7-A5/GpH7-B3 variant A330_14T/GpL16-k0 (antibody, human IgG1, kappa, also called He Ab A330_14T) heavy 1: not shown heavy 2: not shown light: DIVMTQSPLSLPVTPGEPASISCQASESLVHSNRNTYLHWYLQKPGQSPQLLIYKVSNRFSGVPDRFSGSGSGTDFTLKISRVEAEDVGVYYCSQNTHVPPTFGQGTKVEIERTVAAPSVFIFPPSDEQLKSGTASVVCLLNNFYPREAKVQWKVDNALQSGNSQESVTEQDSKDSTYSLSSTLTLSKADYEKHKVYACEVTHQGLSSPVTKSFNRGEC | 105 % of control
GpH7-A5/GpH7-B3 variant A327_10E/GpL16-k0 (antibody, human IgG1, kappa, also called He Ab A327_10E) heavy 1: not shown heavy 2: not shown light: DIVMTQSPLSLPVTPGEPASISCQASESLVHSNRNTYLHWYLQKPGQSPQLLIYKVSNRFSGVPDRFSGSGSGTDFTLKISRVEAEDVGVYYCSQNTHVPPTFGQGTKVEIERTVAAPSVFIFPPSDEQLKSGTASVVCLLNNFYPREAKVQWKVDNALQSGNSQESVTEQDSKDSTYSLSSTLTLSKADYEKHKVYACEVTHQGLSSPVTKSFNRGEC | 103 % of control
GpH7-A5/GpH7-B3 variant E269_04F/GpL16-k0 (antibody, human IgG1, kappa, also called He Ab E269_04F) heavy 1: not shown heavy 2: not shown light: DIVMTQSPLSLPVTPGEPASISCQASESLVHSNRNTYLHWYLQKPGQSPQLLIYKVSNRFSGVPDRFSGSGSGTDFTLKISRVEAEDVGVYYCSQNTHVPPTFGQGTKVEIERTVAAPSVFIFPPSDEQLKSGTASVVCLLNNFYPREAKVQWKVDNALQSGNSQESVTEQDSKDSTYSLSSTLTLSKADYEKHKVYACEVTHQGLSSPVTKSFNRGEC | 103 % of control
GpH7-A5/GpH7-B3 variant A327_09D/GpL16-k0 (antibody, human IgG1, kappa, also called He Ab A327_09D) heavy 1: not shown heavy 2: not shown light: DIVMTQSPLSLPVTPGEPASISCQASESLVHSNRNTYLHWYLQKPGQSPQLLIYKVSNRFSGVPDRFSGSGSGTDFTLKISRVEAEDVGVYYCSQNTHVPPTFGQGTKVEIERTVAAPSVFIFPPSDEQLKSGTASVVCLLNNFYPREAKVQWKVDNALQSGNSQESVTEQDSKDSTYSLSSTLTLSKADYEKHKVYACEVTHQGLSSPVTKSFNRGEC | 103 % of control
GpH7-A5/GpH7-B3 variant E269_03V/GpL16-k0 (antibody, human IgG1, kappa, also called He Ab E269_03V) heavy 1: not shown heavy 2: not shown light: DIVMTQSPLSLPVTPGEPASISCQASESLVHSNRNTYLHWYLQKPGQSPQLLIYKVSNRFSGVPDRFSGSGSGTDFTLKISRVEAEDVGVYYCSQNTHVPPTFGQGTKVEIERTVAAPSVFIFPPSDEQLKSGTASVVCLLNNFYPREAKVQWKVDNALQSGNSQESVTEQDSKDSTYSLSSTLTLSKADYEKHKVYACEVTHQGLSSPVTKSFNRGEC | 103 % of control
GpH7-A5/GpH7-B3 variant A327_03V/GpL16-k0 (antibody, human IgG1, kappa, also called He Ab A327_03V) heavy 1: not shown heavy 2: not shown light: DIVMTQSPLSLPVTPGEPASISCQASESLVHSNRNTYLHWYLQKPGQSPQLLIYKVSNRFSGVPDRFSGSGSGTDFTLKISRVEAEDVGVYYCSQNTHVPPTFGQGTKVEIERTVAAPSVFIFPPSDEQLKSGTASVVCLLNNFYPREAKVQWKVDNALQSGNSQESVTEQDSKDSTYSLSSTLTLSKADYEKHKVYACEVTHQGLSSPVTKSFNRGEC | 103 % of control
